Data taken from the supplement of paper PMC9112550, “Optimization of the antimicrobial peptide Bac7 by deep mutational scanning” (BMC Biology, 2022).

Tested on: Escherichia coli TOP10
Assay: shrunken log2 fold change of peptide-encoding DNA abundance (4.5 h post-induction vs induction); higher = less antimicrobial activity (less host growth inhibition)
Settings: time post-induction: 4.5 h; library: site-saturation at positions 5, 18, 19, 20
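Also: peptides expressed intracellularly from a pBAD plasmid library in pooled LB shake-flask culture, induced with 0.3% L-arabinose, DNA abundance read by NGS, three biological replicates, DESeq2 with apeglm shrinkage.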

Sequence | shrunken log2 fold change
RRIRKRPPRLPRPRPRPQSEPRP | 0.0585
RRIRSRPPRLPRPRPRPIYHPRP | -0.884
RRIRIRPPRLPRPRPRPENRPRP | -0.176
RRIRDRPPRLPRPRPRPCGTPRP | -0.0281
RRIRPRPPRLPRPRPRPSTMPRP | -0.297
RRIRFRPPRLPRPRPRPKVNPRP | -0.266
RRIRQRPPRLPRPRPRPTPNPRP | 0.333
RRIRTRPPRLPRPRPRPRILPRP | -0.0615
RRIRPRPPRLPRPRPRPHERPRP | 0.198
RRIRARPPRLPRPRPRPCELPRP | 0.105
RRIRWRPPRLPRPRPRPSNHPRP | -0.471
RRIRERPPRLPRPRPRPKEFPRP | -0.11
RRIRHRPPRLPRPRPRPTGVPRP | 0.18
RRIRSRPPRLPRPRPRPQMLPRP | -0.195
RRIRGRPPRLPRPRPRPPINPRP | 0.21
RRIRSRPPRLPRPRPRPTGSPRP | 0.0396
RRIRQRPPRLPRPRPRPMEHPRP | 0.0112
RRIRNRPPRLPRPRPRPRRAPRP | 0.604
RRIRPRPPRLPRPRPRPMYWPRP | -0.0489
RRIRWRPPRLPRPRPRPSEQPRP | -0.247
RRIRMRPPRLPRPRPRPSPGPRP | 0.564
RRIRMRPPRLPRPRPRPAYKPRP | 0.0601
RRIRPRPPRLPRPRPRPMTTPRP | -0.104
RRIRCRPPRLPRPRPRPGQSPRP | 0.0538
RRIRHRPPRLPRPRPRPANAPRP | -0.0554

Sequence | shrunken log2 fold change
RRIRQRPPRLPRPRPRPDSCPRP | 0.0169
RRIRYRPPRLPRPRPRPKMWPRP | -0.113
RRIRKRPPRLPRPRPRPEMHPRP | 0.0496
RRIRTRPPRLPRPRPRPAPMPRP | 0.202
RRIRRRPPRLPRPRPRPFPQPRP | 0.441
RRIRKRPPRLPRPRPRPSCEPRP | 0.401
RRIRYRPPRLPRPRPRPGLEPRP | 0.114
RRIRRRPPRLPRPRPRPDQDPRP | -0.0033
RRIRERPPRLPRPRPRPAVNPRP | -0.00945
RRIRARPPRLPRPRPRPDVSPRP | 0.106
RRIRKRPPRLPRPRPRPDAMPRP | 0.618
RRIRMRPPRLPRPRPRPKKYPRP | 1.26
RRIRWRPPRLPRPRPRPKPMPRP | 0.171
RRIRLRPPRLPRPRPRPKWKPRP | 0.0281
RRIRPRPPRLPRPRPRPKIEPRP | 0.0313
RRIRVRPPRLPRPRPRPLWPPRP | 0.176
RRIRQRPPRLPRPRPRPCAHPRP | -0.256
RRIRMRPPRLPRPRPRPAQAPRP | 0.107
RRIRYRPPRLPRPRPRPQSPPRP | -0.0354
RRIRRRPPRLPRPRPRPDPKPRP | 0.304
RRIRPRPPRLPRPRPRPCPHPRP | -0.81
RRIRHRPPRLPRPRPRPQIDPRP | -0.123
RRIRIRPPRLPRPRPRPHSVPRP | -0.0376
RRIRHRPPRLPRPRPRPKLEPRP | -0.0604
RRIRSRPPRLPRPRPRPYTLPRP | -0.146

Sequence | shrunken log2 fold change
RRIRNRPPRLPRPRPRPNNCPRP | -0.0864
RRIRIRPPRLPRPRPRPLPAPRP | 0.041
RRIRIRPPRLPRPRPRPERKPRP | 0.00827
RRIRNRPPRLPRPRPRPDESPRP | -0.109
RRIRVRPPRLPRPRPRPVTAPRP | -0.0594
RRIRFRPPRLPRPRPRPFPCPRP | -0.151
RRIRCRPPRLPRPRPRPQTSPRP | -0.209
RRIRIRPPRLPRPRPRPCQCPRP | -1.17
RRIRERPPRLPRPRPRPCILPRP | -0.425
RRIRCRPPRLPRPRPRPSFVPRP | -0.68
RRIRKRPPRLPRPRPRPNHQPRP | -0.376
RRIRVRPPRLPRPRPRPGHIPRP | -0.028
RRIRNRPPRLPRPRPRPWVPPRP | -1.03
RRIRSRPPRLPRPRPRPQQIPRP | 0.153
RRIRLRPPRLPRPRPRPKMHPRP | 0.0307
RRIRCRPPRLPRPRPRPDNEPRP | -0.229
RRIRARPPRLPRPRPRPWRFPRP | 0.323
RRIRHRPPRLPRPRPRPLAGPRP | 0.312
RRIRPRPPRLPRPRPRPCRLPRP | -0.29
RRIRWRPPRLPRPRPRPCINPRP | -0.374
RRIRHRPPRLPRPRPRPPGVPRP | 0.0725
RRIRVRPPRLPRPRPRPFRYPRP | -0.0399
RRIRCRPPRLPRPRPRPTMEPRP | -0.088
RRIRARPPRLPRPRPRPWFSPRP | -0.00399
RRIRMRPPRLPRPRPRPSICPRP | -0.176

Sequence | shrunken log2 fold change
RRIRWRPPRLPRPRPRPIYFPRP | -0.198
RRIRSRPPRLPRPRPRPFWTPRP | 0.131
RRIRFRPPRLPRPRPRPMYNPRP | -0.294
RRIRARPPRLPRPRPRPYGRPRP | 0.0766
RRIRTRPPRLPRPRPRPDLAPRP | 0.132
RRIRNRPPRLPRPRPRPCLTPRP | 0.0253
RRIRIRPPRLPRPRPRPFCMPRP | -0.4
RRIRMRPPRLPRPRPRPFNHPRP | -0.367
RRIRPRPPRLPRPRPRPFRWPRP | -0.0528
RRIRYRPPRLPRPRPRPGYTPRP | 0.0577
RRIRDRPPRLPRPRPRPLYLPRP | -0.648
RRIRRRPPRLPRPRPRPCVVPRP | 0.152
RRIRSRPPRLPRPRPRPFVTPRP | -0.0434
RRIRERPPRLPRPRPRPYAMPRP | -0.416
RRIRIRPPRLPRPRPRPRKIPRP | -0.413
RRIRPRPPRLPRPRPRPIGRPRP | -0.0114
RRIRVRPPRLPRPRPRPCRFPRP | -0.464
RRIRWRPPRLPRPRPRPSFHPRP | -0.458
RRIRRRPPRLPRPRPRPWINPRP | -0.37
RRIRCRPPRLPRPRPRPYDDPRP | -0.396
RRIRNRPPRLPRPRPRPTRHPRP | 0.162
RRIRWRPPRLPRPRPRPECMPRP | 0.623
RRIRYRPPRLPRPRPRPDFAPRP | 0.0515
RRIRRRPPRLPRPRPRPVWIPRP | 0.148
RRIRWRPPRLPRPRPRPFVDPRP | 0.0365

Sequence | shrunken log2 fold change
RRIRCRPPRLPRPRPRPCLPPRP | -0.439
RRIRDRPPRLPRPRPRPMYLPRP | -0.239
RRIRYRPPRLPRPRPRPDTFPRP | -0.016
RRIRYRPPRLPRPRPRPNKPPRP | -0.18
RRIRFRPPRLPRPRPRPYPHPRP | -1.04
RRIRRRPPRLPRPRPRPYSVPRP | 0.0601
RRIRWRPPRLPRPRPRPSLRPRP | 0.0372
RRIRWRPPRLPRPRPRPCWRPRP | 0.0637
RRIRLRPPRLPRPRPRPLALPRP | -0.438
RRIRARPPRLPRPRPRPALHPRP | 0.651
RRIRIRPPRLPRPRPRPTEQPRP | -0.348
RRIRGRPPRLPRPRPRPSPPPRP | 0.569
RRIRMRPPRLPRPRPRPSPWPRP | 0.61
RRIRERPPRLPRPRPRPFWAPRP | 0.084
RRIRMRPPRLPRPRPRPNNLPRP | -0.259
RRIRERPPRLPRPRPRPKYWPRP | -0.202
RRIRKRPPRLPRPRPRPPWSPRP | 0.154
RRIRGRPPRLPRPRPRPISTPRP | 0.289
RRIRSRPPRLPRPRPRPMGRPRP | 0.0253
RRIRERPPRLPRPRPRPFKQPRP | -0.0138
RRIRNRPPRLPRPRPRPQMYPRP | -0.864
RRIRLRPPRLPRPRPRPHRYPRP | 0.00601
RRIRTRPPRLPRPRPRPPTWPRP | 0.0779
RRIRRRPPRLPRPRPRPATNPRP | 0.189
RRIRPRPPRLPRPRPRPQNLPRP | -0.0683
